In US20110034673A1 (Kyowa Kirin, published 2011):
Residue numbers refer to the chain shown, from its start. One block for each binder: values may come before it.

What was measured:
[1] = target: T1, recombinant secretory human HB-EGF manufactured by R & D System (catalogue number 259-HE/CF) (human, UniProt Q99075 63-148); assay: SPR (BIACORE T100), HB-EGF immobilized, antibody in flow
T1 construct: also called recombinant human HB-EGF; secretory HB-EGF
Procedure: (§1) In order to analyze binding activities of a mouse antibody KM3566 and the chimeric antibody KM3966 for human HB-EGF in reaction kinetics, the binding activity measurement was carried out using Biacore. All of the following operations were carried out using Biacore T-100 (manufactured by Biacore). Human HB-EGF (manufactured by R & D) prepared into 5 μg/ml using HBS-EP Buffer (manufactured by Biacore) was immobilized onto a CM 5 sensor chip (manufactured by Biacore) to a level of 80 RU (resonance unit) by an amine coupling method. Thereafter, each antibody diluted 5-fold from 9 nmol/l was let flow on the chip at a rate of 10 μl/min, and by analyzing the sensor-gram at each concentration, the association rate constant and dissociation rate constant of each antibody for human HB-EGF were calculated.
In order to reaction-kinetically analyze binding activity of the anti-HB-EGF humanized antibodies for human HB-EGF, it was measured in the same manner as in Example 7(2) using BIACORE T100 (manufactured by BIACORE).
As a result, human HB-EGF binding activity of the anti-HB-EGF humanized antibody HV0LV0 in which the CDRs of anti-HB-EGF chimeric antibody KM3966 were simply transplanted into human framework was reduced close to about ½ of that of the anti-HB-EGF chimeric antibody KM3966, but the binding activity of the anti-HB-EGF humanized antibody HV7LV0 in which amino acid modification was added to the H chain alone and the anti-HB-EGF humanized antibody HV7LV5 in which amino acid modification was added to the H chain and L chain was increased to almost the same level of the anti-HB-EGF chimeric antibody KM3966.

[2] = target: T1, recombinant secretory human HB-EGF …; assay: SPR (BIACORE T100), HB-EGF immobilized
Procedure: as §1
In order to reaction-kinetically analyze binding activity of the anti-HB-EGF humanized antibodies for human HB-EGF, it was measured in the same manner as in Example 7(2) using BIACORE T100 (manufactured by BIACORE). […]

[3] = target: bovine serum albumin (BSA) (bovine, UniProt P02769 25-607); assay: binding ELISA
Chain of bovine serum albumin (BSA) (P02769 25-607 limits assumed): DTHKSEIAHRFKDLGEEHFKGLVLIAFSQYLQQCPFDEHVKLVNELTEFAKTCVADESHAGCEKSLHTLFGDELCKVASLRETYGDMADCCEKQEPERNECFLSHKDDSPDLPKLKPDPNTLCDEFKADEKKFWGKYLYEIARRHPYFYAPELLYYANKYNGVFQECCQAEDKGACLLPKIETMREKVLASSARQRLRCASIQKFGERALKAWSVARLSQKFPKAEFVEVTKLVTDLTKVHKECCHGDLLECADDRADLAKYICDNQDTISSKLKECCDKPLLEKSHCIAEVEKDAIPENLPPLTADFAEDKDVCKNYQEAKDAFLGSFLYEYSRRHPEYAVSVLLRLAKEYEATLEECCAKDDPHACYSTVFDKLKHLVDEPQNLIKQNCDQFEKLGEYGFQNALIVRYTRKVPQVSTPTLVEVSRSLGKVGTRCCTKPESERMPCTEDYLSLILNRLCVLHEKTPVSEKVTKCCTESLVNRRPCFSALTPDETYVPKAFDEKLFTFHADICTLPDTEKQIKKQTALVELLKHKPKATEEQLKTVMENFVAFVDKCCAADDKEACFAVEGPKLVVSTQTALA

[4] = target: T2, mouse HB-EGF (mouse, UniProt Q06186 63-148, limits assumed); assay: not described
T2 sequence (looked up): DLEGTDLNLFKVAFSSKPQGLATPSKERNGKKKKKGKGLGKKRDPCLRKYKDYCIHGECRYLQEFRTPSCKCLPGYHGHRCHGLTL

[5] = target: T1, recombinant secretory human HB-EGF …; assay: SPR (Biacore T-100), HB-EGF immobilized on CM5 chip, antibody in flow
Procedure: as §1
It was confirmed based on the results that both antibodies almost the same binding activity for human HB-EGF.

T1 sequence (Q99075 63-148 limits assumed): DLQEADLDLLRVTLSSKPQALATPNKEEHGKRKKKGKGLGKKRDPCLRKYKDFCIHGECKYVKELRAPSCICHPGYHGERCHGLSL

- kon [1]: 174000 M⁻¹ s⁻¹
B1: anti-HB-EGF humanized antibody HV7LV0 (antibody, V domains shown)
VH: QVQLVQSGAEVKKPGASVKLSCKASGYTFRTYGITWVRQAPGQGLEWIGEIFPGSGNTYYNEKFKGRATLTADKSTSTAYMELSSLRSEDTAVYFCARESFSDGYYGYFDYWGQGTLLTVSS
VL: DIVMTQSPDSLAVSLGERATINCKSSQSLLYSTNQKNSLAWYQQKPGQPPKLLIYWASTRESGVPDRFSGSGSGTDFTLTISSLQAEDVAVYYCQQYYRYPLTFGQGTKLEIK
notes: Whole humanized antibody from pKANTEX93

- human HB-EGF binding activity relative to KM3966 [2]: ~0.5 fold of KM3966
- kon [1]: 104000 M⁻¹ s⁻¹
B2: anti-HB-EGF humanized antibody HV0LV0 (antibody, V domains shown)
VH: B1 VH with L20V, R30T, I48M, A68V, L70I, F95Y, L118V
VL: B1 VL
notes: Whole humanized antibody expressed from pKANTEX93

- kon [1]: 170000 M⁻¹ s⁻¹
B3: anti-HB-EGF humanized antibody HV7LV5 (antibody, V domains shown)
VH: B1 VH
VL: B1 VL with L15V, A19V, I21M, P49S, L84V
notes: as for B1

- binding result [4]: no binding
- kon [5]: 270000 M⁻¹ s⁻¹
B4: anti-HB-EGF monoclonal antibody KM3566 (antibody, V domains shown)
VH: QVQLQQSGTELARPGASVKLSCKASGYTFRTYGITWVKQRTGQGLEWIGEIFPGSGNTYYNEKFKGKASLTADKSSSTAYMQLSSLTSEDSAVYFCARESFSDGYYGYFDYWGQGTTLTVSS
VL: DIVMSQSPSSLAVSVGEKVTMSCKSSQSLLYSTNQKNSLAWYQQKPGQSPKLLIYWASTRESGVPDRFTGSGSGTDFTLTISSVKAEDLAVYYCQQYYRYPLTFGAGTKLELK
notes: also called anti-HB-EGF mouse antibody KM3566; monoclonal antibody produced by hybridoma KM3566 (FERM BP-10490)
- binding result [3]: no binding (tested: diluted stepwise from 10 µg/ml)

- binding result [4]: no binding
- kon [1]: 187000 M⁻¹ s⁻¹
- kon [5]: 240000 M⁻¹ s⁻¹
B5: anti-HB-EGF chimeric antibody KM3966 (antibody, V domains shown)
VH: B4 VH
VL: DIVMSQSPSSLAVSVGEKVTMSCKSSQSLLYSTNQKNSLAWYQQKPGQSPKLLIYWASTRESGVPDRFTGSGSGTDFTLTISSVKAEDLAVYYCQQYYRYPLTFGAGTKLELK
notes: Human chimeric IgG class antibody made with the vector pKANTEX93 (WO 97/10354); also called human chimeric antibody KM3966; anti-HB-EGF monoclonal antibody KM3966
